A protein production outcome set (Wang et al. 2014)

Experiment: label from the status in PepcDB records

Sequence | protein production
MPTNQDLQLAAHLRSQVTTLTRRLRREAQADPVQFSQLVVLGAIDRLGGDVTPSELAAAERMRSSNLAALLRELERGGLIVRHADPQDGRRTRVSLSSEGRRNLYGNRAKREEWLVRAMHACLDESERALLAAAGPLLTRLAQFEEP | not failed
PHRAVVNFLLSMTNQPGINAGDRLLAVTSISFDISVLELFLPLISGASLVLADSEAAADGQALIKLAMHQDVTFIQATPSNYWLMLEAGWPSTLKLKVLCGGEALPPVLAQKLLQRSDSVWNMYGPTETTIWSAISRVTGSASTLGRP | failed
MLMMLKSLRVNRILKLLLLAIFSSFMIIACGDRLTQYTVSQKISPSTECQVIQHQVGETQVCGQPQKIVALGPNVLEILLALDVQPVGFADHVPLHQGNYDNPSQQIPYLGERVTGELINLGLAYTPSIEALLKIKPDLIIGNELNRSQYEMLSKIAPTLLFPRFDAQPNLLAISKILGRSEKAKKILADSDQRLAIAQKALSDIVANHPQVLMLVSLGQSISEQLRFPRRDSFCDSLVTNLGFKLMSPSSLVPADKSVPPPLSIETLPQFNSADSIILLGANFSQVQLSDDKYFEPQMQKLKQQWSENAIAQSLTASKEGRVYFIPAYLCLGLPGPIGTELYLQELQKQLLSPQGK | failed
MRITVMTAGEQIITLDVDSQETVENVKALLEVESNVPIQQQQLLYNGNEMGNSDKLSALGVKDDDLLMMMVSNASSGSATSAAGNDLGMNPDGSALNPAAFQQHIRGDSNLMGQLFQNDPELAQVISGSDLNKLQDVLRARHRQRSVLQRQKEEELALLYADPFDVEAQRKIEAAIRQKGIDENWEAALEHNPEGFARVIMLYVDMEVNGVPLKAFVDSGAQSTIISKSCAERCGLLRLMDQRYKGIAHGVGQTEILGRIHVAPIKIGNNFYPCSFVVLDSPNMEFLFGLDMLRKHQCTIDLKENVMTVGGGEVSVPFLQEKDIPSRFLDEERVPNDASSSGATVPSGFTEKKNNTVANPTSQQPKRQNTSEGPEFEAKIAKLVELGFSRDSVIQALKLFEGNEEQAAGFLFGG | failed
PIIFVPGIMGSRLKFAKGKKQGTRAWDPDSSGFMFLNYGRFDVSAKKKKALLVGPEFDPDYLEVDTNNPKLDKSFLRRYPRADKRGWGGVMWGSYGPILRALHDHQWEEPVGHCFEFPVHAFGYNWTASNMEAGRKLKEYIGATIDHYAKGLRDEAGRPLERLCTRVILVTHSMGGLVARSACVLHGAAEKVLGVVHGVQPATGSPAAYWRMK | failed
MSKVNQQDIDKLIELVGGRGNIATVSHCITRLRFVLNDPAIARPKEIEQLRMVKGCFTNAGQFQVVIGTEVGDYYKALLATTGQTSADKEQVKQAARQNM | failed
MTKVHPKFPSTCEESLCDSKAAVVLTVWKKSLLFNCDGFTVYNANGELVFRVDNYMNCPRDNIVLMDASGFPLLSIRRKKLSLGDCWMVYDGETERDPIFTARKNVSIISNRKSLAWVSAKKTVLYEIEGSYGQRSCKILDERRNKKKTAEIKRKETVIGGVAFGKDVYKLIVESEMEPRVAMALTIILDQMFRSS | failed
MSIQAPPRLLELAGQSLLRDQALSISAMEELPRVLYLPLFMEAFRRRHFQTLTVMVQAWPFTCLPLGSLMKTLHLETLKALLEGLHMLLTQKDRPRRWKLQVLDLRDVDENFWARWPGAWALSCFPETMSKRQTAEDCPRMGEHQPLKVFIDICLKEIPQDECLRYLFQWVYQRRGLVHLCCSKLVNYLTPIKHLRKSLKIIYLNSIQQLEIRNMSWPRLIRKLRCYLKEMKNLRKLVFSRCLQNPLENLELTYGYLLEEDMKCLSQYPSLGYLKHLNLSYVLLFRISLEPLGALLEKIAASLETLILEGCQIHYSQLSAILPGLSHCSQLTTFYFGRNCMSMGALKDLLCHTSGLSKLSLETYPAPEESLNSLVRVDWEIFALLRAELMCTLREVRQPKRIFIGPTPCPSCGSSPSEELELHLCC | failed
MSLQRLLQHSSNGNLADFCAGPAYSSYSTLTGSLTMDDNRRIQMLADTVATLPRGRKQLALTRSSSLSDFSWSQRKLVTVEKQDNETFGFEIQSYRPQNQNACSSEMFTLICKIQEDSPAHCAGLQAGDVLANINGVSTEGFTYKQVVDLIRSSGNLLTIETLNGTMILKRTELEAKLQVLKQTLKQKWVEYRSLQLQEHRLLHGDAANCPSLENMDLDELSLFGPLPGPGPALVDRNRLSSESSCKSWLSSMTMDSEDGYQTCVSEDSSRGAFSRQTSTDDECFIPKEGDDFLRRSSSRRNRSISNTSSGSMSPLWEGNLSSMFGTLPRKSRKGSVRKQLLKFIPGLHRAVEEEESRF | not failed
MAVYMLNMGIVFVWSWFAKMYGREDHRLPTGYRPNAILTVVPLASLIIVAGLRYKVGTDYHTYMLLYELAGKYNSIWEIFGFGTGKSSTDPGFTALLWILNQISADPALMFAVVAAITYIYIVKTLYVYGRPFELSMFLFIGMFHYYASFNGIRQYMAAAILFWAVRYLIDGKLVRYMIVVLICSLFHSSALIMIPVYFIVRRKAWSPVLWCLMLVFLAGTFLYQKFLSVFLVVLENSQYGHYEEWLMKNTNGMNVIKIIVLLLPLALAFCFREQLRKRWPEVDYIVNLCLIGFLFGILATKDVIFARFNIYFGLYQLILVPYFVRIFEPKSNALLYVLILICYFLYSFMLMPFDSSVLPYRTIFER | failed
MPIDEWLVLNRIGIFENPSLRRYVSPFPPPELMGITSGLQSETGFAAHGADIYAALALASTIPITEYRHILDFGCGCGRLARMLKGHPHKISGCDIDLRHVKWIGQSLDFMNVKLSSVRPPIPFADDEMDAVISVSIFTHLTENSQDDFLAELFRVTRPGGTLFLTVHGAQALKRACHEQPIRHMLDMDEGRFRKAQQAFNQNKHGFVLQFGHLTTKPEKAFYTPRAIFRRIRDSFSRKTINMPFEYGIAFHPESYIREHWSKWFDILDYRHGAIHQFQDIVVLSPKK | failed
MVKNGQSKRQPWVKNLYSNREYPDNYTDASFLKDLRTNLHCRIYTFGEAIAGITVLNNQISCITGFLILYQLMLSDSVSPTTILVPSCGITGIGYLCYRGRSLSWALLGEDSKTLVTVVLFGYLFSPMLHTLTQAISTDTIYTMTFFVLLGNLIFGHYGLDVAMVSKVGNIYGYWSQAVSLNAAIFGAICLASRLPTSYHAFVLLVEAAVFFVLYPIMTEANWHAGFMLPIFAICCMALYCISRPVLYLYASTTIFINFVCPFIFVWQQQYKFNIHGPWDEAIVEENTEENLDGNL | failed
PSYTVTVATGSQWFAGTDDYIYLSLVGSAGCSEKHLLDKPFYNDFERGAVDSYDVTVDEELGEIQLVRIEKRKYWLNDDWYLKYITLKTPHGDYIEFPCYRWITGDVEVVLRDGRAKLARDDQIHILKQHRRKELETRQKQYRWMEWNPGFPLSIDAKCHKDLPRDIQFDSEKGVDFVLNYSKAMENLFINRFMHMFQSSWNDFADFEKIFVKISNTISERVMNHWQEDLMFGYQFLNGCNPVLIRRCTELPEKLPVTTEMVECSLERQLSLEQEVQQGNIFIVDFELLDGIDANKTDPCTLQFLAAPICLLYKNLANKIVPIAIQLNQIPGDENPIFLPSDAKYDWLLAKIWVRSSDFHVHQTITHLLRTHLVSEVFGIAMYRQLPAVHPIFKLLVAHVRFTIAINTKAREQLICECGLFDKANATGGGGHVQMVQRAMKDLTYASLCFPEAIKARGMESKEDIPYYFYRDDGLLVWEAIRTFTAEVVDIYYEGDQVVEEDPELQDFVNDVYVYGMRGRKSSGFPKSVKSREQLSEYLTVVIFTASAQHAAVNFGQYDWCSWI | failed
MLLTLEQELFTQFGYAAFKPGQKEVITNLLDGMNTLAVLPTGTGKSLCYQFVGQKLEGLTVIVSPLLSLMEDQMRQLQRQGIKGAVALNSTLQYSEKRYILAKMFQYDYLFLSPEMLLQQEVLSVLQRQKIALFVVDEAHCVYQWGVDFRPEYSKLDLVQKQLDFPLTLALTATATPVVQHAIIKQLFSHGSYQEVLSSVNRKNIGLFVKETSEKEEVLLDYLSKTAGKIIIYCATRNKTEQISQLIQAKTSFKVAYYHGGLEASERSRLQEQFIDNQIDILCATNAFGMGIDKPDVRGVIHFDLPDSLENYLQEIGRAGRDGQKSWALLLYKKGDEFIHRFFLEETRANRATLKSLIEGEEQAGLLENATELQQKWVQGYLAKDYSFEELEHRLEEKEKDRQAQLRGMLTYIETTTCRRTLIQTYFQEPIVKQSPETCCDNCALFFDIYQDSIVKSNKTSNQNEEGWRSKFLKLFKERD | failed
MALARWGAALQRRWQAIDPAERAGFVAGARFYVGSLPPVFAWGLVTGVAMSKSVLTIPQAIGMTLLVYAGSSQLAVLPLMAAGLPVWTVLLTAFIVNVRFIIFSAGLMQHFSHLPFGRRVLIGFFNGDLPFVLFSQRYPGPGPERGKEGYLWGMALANWTIWQVSSLLGIVGASLFPDAWGLALAGTLALIPVMVSTIRSRATLMAVAVAAVLALVAFKLPYRLSLVIAVVGAMAAGLAGDEATARLQWQRRGAQPAPSEPKEGP | failed
MTQPEETPVSFIPSNFIEKGKILNGTFDIRNAIESIVLSLAIGIPVFHLPLSLTARIIILCMTALPAAMVALIGIGGESITAFLMNALRFVVNRRVIWRSDSLPEGKPRRKPRFKEPKTKKHRKAEKMAEPSKVMASAPPQSEPDAPAPPKSKKKEHRQFDTSTKRGIKKQAKEDIRYLKWEQKEASRQKKEAAKQIKIQKKTEARRRKEEEKRAVSEKRAAKKEQKKKVVSKEDTSSATSKPVSRKKRKKDQTLEDYLPVEKIANGIVYTTDGRYVKILEIEPINFLLRSAREQQGIIYSFISYLKISPVKLQIKMISKKADINKHLEQSQLELERETDPHCQELQRDYIQFVQNLSSREAVSRRFFLIFEYEPFNANRKEEEREILAALETASQTAKTFLYQCGNEVVSHDNEDEFTTDVLYTLLNRTLCTEVPLSNRISTVLSAYTKENRMEELDHIRINEFLAPESVDFKHSHYVQINGLYHSYLLVPSDGYKNRVTPGWLSLLVNAGEGIDIDFFLQKQPKDKIQQRLGQQIRINRSKLKDASDTNTDYDDLDSAIRSGYFLKQGLANNEDFYYMNLLITITASTLEELQWRIQEMKKLLISQDMNLHSCYFLQEQGFLSSLPLANLDKKLFKLSKRNVLTSGAASCYPFVSYSICDDNGILFGVNKHNNSLVIADIFDSRQYKNSNICILGCSGAGKTFTMQTMALRMRRKGIQVFIIAPLKGHEFYRAARNVGGEFIQISPASKNCINIMEIRKVDNSVNELLDGPTLDASALAGKIQRLHIFFSLLIPDMSHEEKQLLDEALIKTYARKGITHKNESLTDPQHPEQYKKMPILEDVYNVLLESEDTKRLAHILNRLVHGSASSFNQQTNVDLTNKYTVLDISELTGSSDLLTVGMFVALDYVWDKAKENRTEEKAIFVDEVWQLIGASSNRLAAEFVLEIAKIIRAYSGAGIFATQDLNDFFALDDGKYGKGIINNCKTKIILNMEDEEAQRVKTILHLSETEVMNITHFQRGNGLISTNNNNITVEFKASNLEKELITTERQELLEILAKQKKQAV | failed
MRTVLNILNFVLGGFATTLAWLLATLVSIVLIFTLPLTRSCWEITKLSLFPYGNEAIHVDELNPAAKSVLMNTGGTLLNIFWLLFFGWWLCLMHIASGIAQCVTIIGIPVGIANFKIAAIALWPVGRRVVSVETARAAREANARRRFE | failed
MSLKGLRRLVLDVLKPHEPKTIVFALKLSELENVDGVNIHLSEIDQATENIKITILGNNLDYEQIKGVIEDMGGVIHSVDEVVAGKIIVESVEGHHHHHH | not failed
MMRSSKIGFRSLAVWPFSLTAFFFFLLHPCVSAQRVYKPEDVPNVQLADSTRLVTDEAGLLSNAQEEVMNGRLRAIRSSHAVEFAVVTLPSIGDAPLEDFTLKLARQWGVGNEKNNNGLLLVLVLDQRRVRFETGYGLEGYLPDGLLSRIIHDRMIPHFRSGNYAEGLSEGVLAVQQVLDGSYDVKPDGGDRSAVSRVSWGTIFIFYCFFMLLASASVLYQLTSYRRQYPRATAVEEYEFLRRRISMLGCVFLLLFPPGFIVVMAIIKSRQNKLKKEMAVCPCCHQHSVHLLDQSLEEDRYLSPSQQMEHKLKSRDFRVYACSSCDHTQIIGYDHPGTSYKRCPNCGTVALRYMGEKRVRTDRGMMIRKEWRCLYCGENHTQEYRDNNDAEAAATGILLGSLLGRGGRSGGFGGGFGGGGFGGGSFGGGGASGGWLEHHHHHH | failed
